Assay results taken from paper PMC7703624 (Proceedings of the National Academy of Sciences of the …, 2020).
Where a SMILES comes first, the peptide text is derived from it.

Assays:
ENAH EVH1 [1] = biological target: T1, ENAH EVH1 (Homo sapiens, UniProt Q8N8S7); experiment: other fluorescence titration
Target sequence in this assay (Q8N8S7 whole entry): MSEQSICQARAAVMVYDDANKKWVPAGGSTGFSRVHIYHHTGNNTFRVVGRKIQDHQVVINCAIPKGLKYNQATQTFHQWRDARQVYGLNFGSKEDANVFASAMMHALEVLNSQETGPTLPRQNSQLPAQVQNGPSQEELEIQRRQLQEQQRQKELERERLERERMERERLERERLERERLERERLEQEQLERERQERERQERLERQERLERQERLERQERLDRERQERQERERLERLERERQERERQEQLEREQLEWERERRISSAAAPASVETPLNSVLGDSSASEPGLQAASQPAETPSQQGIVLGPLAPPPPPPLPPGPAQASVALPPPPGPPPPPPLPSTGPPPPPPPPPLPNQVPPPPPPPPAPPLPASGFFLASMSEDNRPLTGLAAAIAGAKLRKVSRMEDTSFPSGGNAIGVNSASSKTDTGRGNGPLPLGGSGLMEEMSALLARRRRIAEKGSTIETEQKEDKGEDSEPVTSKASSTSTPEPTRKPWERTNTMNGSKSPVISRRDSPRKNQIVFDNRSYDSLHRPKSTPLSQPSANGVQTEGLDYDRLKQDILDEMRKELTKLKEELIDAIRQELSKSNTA

Fyn SH3 = Fyn SH3 (Homo sapiens, UniProt P06241); experiment: Pulldown of GST-Fyn SH3 from Jurkat cell lysate, displacement of ADAP; assay type: binding; conditions: Jurkat cell lysate 1 mg/ml, 50 µM active concentration
Sequence of Fyn SH3 (P06241 82-143 limits assumed): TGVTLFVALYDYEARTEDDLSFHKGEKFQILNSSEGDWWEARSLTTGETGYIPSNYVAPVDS

ENAH EVH1 [2] = biological target: T1, ENAH EVH1; experiment: Fluorescence titration; assay type: binding

Molecule: 2ΔC, Ac-SFE[2-Cl-Phe][ProM-2][ProM-1]-OEt (peptide)
- Kd (ENAH EVH1 [1]): 2.9 µM

Molecule: 2ΔN, Ac-[2-Cl-Phe][ProM-2][ProM-1]TEDEL-NH2 (peptide)
- Kd (ENAH EVH1 [1]): 0.33 µM

Molecule: chimeric peptide 2, Ac-SFE[2-Cl-Phe][ProM-2][ProM-1]TEDEL-NH2
- Kd (ENAH EVH1 [1]): 0.15 µM

Molecule: Ac-RPLPPLP-NH2 [Ac–RPLPPLP −NH2]
- displacement of ADAP from bead-bound GST-Fyn SH3 (Fyn SH3): displaced ADAP

Molecule: CCOC(=O)[C@@H]1CCCN1C(=O)[C@@H]1CCCN1C(=O)[C@@H]1CCCN1C(=O)[C@@H]1CCCN1C(=O)[C@H](Cc1ccccc1)NC(C)=O [wt1, Ac–FPPPP–OEt] (Ac-FPPPP-OEt)
- Kd (ENAH EVH1 [2]): 153 µM

Molecule: Ac-SFEFPPPPTEDEL-NH2 [wt2, Ac-…-NH2]
- Kd (ENAH EVH1 [1]): 13 µM
